Molecular target: rmGDF8 (R&D) (mouse (from the label rmGDF8 only)) (UniProt O08689)
Assay: Biacore, trap captured on amine-coupled Protein A (CM5), rmGDF8 0.312-20 nM as analyte

Chain of UniProt O08689 (O08689 268-376 limits assumed): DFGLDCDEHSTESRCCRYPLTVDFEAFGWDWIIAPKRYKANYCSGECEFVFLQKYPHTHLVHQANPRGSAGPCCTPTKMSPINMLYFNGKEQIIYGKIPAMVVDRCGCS

hGDF8(1-38, 43-64)-hFc (Fc fusion) gave a Kd of 0.0133 nM, a koff of 6.2e-05 s⁻¹ and a kon of 4.66e+06 M⁻¹ s⁻¹. For the same substance, the t½ was 3.1 h.
